The results in this text go back to PMC8852700, “Distinct Serotypes of Streptococcal M Proteins Mediate Fibrinogen-Dependent Platelet Activation and Proinflammatory Effects” (Infection and Immunity, 2021).

In assay [1] the target is M3 protein (Streptococcus pyogenes) (UniProt Q54841).
The target is the same in assay [2]. The source holds these as a separate data set.
Assay [3] shares this target. The source holds these as a separate data set.
The target in the next assay is T1, M5 protein (Streptococcus pyogenes, UniProt P02977 43-461).
T1 sequence: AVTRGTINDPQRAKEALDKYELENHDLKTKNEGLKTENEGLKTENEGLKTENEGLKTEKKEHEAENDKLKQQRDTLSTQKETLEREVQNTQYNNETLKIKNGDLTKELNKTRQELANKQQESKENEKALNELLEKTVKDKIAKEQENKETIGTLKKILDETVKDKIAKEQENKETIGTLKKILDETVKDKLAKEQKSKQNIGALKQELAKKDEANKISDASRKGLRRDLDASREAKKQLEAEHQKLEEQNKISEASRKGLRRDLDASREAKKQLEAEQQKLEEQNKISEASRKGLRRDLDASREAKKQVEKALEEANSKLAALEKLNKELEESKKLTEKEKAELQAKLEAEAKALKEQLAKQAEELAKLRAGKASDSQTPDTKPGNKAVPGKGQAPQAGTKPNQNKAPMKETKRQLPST
Description: cell-based or functional assay.

The next assay concerns the target T2, M1 protein (Streptococcus pyogenes, UniProt Q99XV0 1-484).
T2 sequence: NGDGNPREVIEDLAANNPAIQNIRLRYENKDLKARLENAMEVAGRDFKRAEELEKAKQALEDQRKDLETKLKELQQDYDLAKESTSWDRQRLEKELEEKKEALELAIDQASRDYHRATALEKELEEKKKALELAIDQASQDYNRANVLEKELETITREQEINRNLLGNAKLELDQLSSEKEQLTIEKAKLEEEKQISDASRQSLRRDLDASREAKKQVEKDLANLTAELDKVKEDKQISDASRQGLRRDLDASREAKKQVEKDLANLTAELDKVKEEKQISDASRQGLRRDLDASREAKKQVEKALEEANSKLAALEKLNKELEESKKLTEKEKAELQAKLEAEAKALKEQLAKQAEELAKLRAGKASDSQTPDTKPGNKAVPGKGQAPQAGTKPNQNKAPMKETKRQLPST
Description: cell-based or functional assay.

As for “human fibrinogen (from UniProt P02671 36-866; P02675 45-491; P02679 27-453) (natural protein)”, in assay [1], the platelet-monocyte complex formation: percentage of monocytes positive for CD61, flow cytometry of whole blood, median of 10 donors (background 4%) turned out to be 17% and the platelet-neutrophil complex formation: percentage of neutrophils positive for CD61, flow cytometry of whole blood, median of 10 donors (background 18%) was determined as 53%. The same molecule came in with a platelet activation: percentage of platelets positive for CD62P, flow cytometry of platelet-rich plasma, median of 10 donors (background 3%) in assay [2] of 55%. In assay [3], this molecule yielded a monocyte activation: fold increase of CD11b median fluorescence intensity above background, flow cytometry of whole blood, 10 donors of 3 fold and a neutrophil activation: fold increase of CD11b median fluorescence intensity above background, flow cytometry of whole blood, 10 donors of 5 fold.

B1: human fibrinogen (natural protein)
chain 1: GPRVVERHQSACKDSDWPFCSDEDWNYKCPSGCRMKGLIDEVNQDFTNRINKLKNSLFEYQKNNKDSHSLTTNIMEILRGDFSSANNRDNTYNRVSEDLRSRIEVLKRKVIEKVQHIQLLQKNVRAQLVDMKRLEVDIDIKIRSCRGSCSRALAREVDLKDYEDQQKQLEQVIAKDLLPSRDRQHLPLIKMKPVPDLVPGNFKSQLQKVPPEWKALTDMPQMRMELERPGGNEITRGGSTSYGTGSETESPRNPSSAGSWNSGSSGPGSTGNRNPGSSGTGGTATWKPGSSGPGSTGSWNSGSSGTGSTGNQNPGSPRPGSTGTWNPGSSERGSAGHWTSESSVSGSTGQWHSESGSFRPDSPGSGNARPNNPDWGTFEEVSGNVSPGTRREYHTEKLVTSKGDKELRTGKEKVTSGSTTTTRRSCSKTVTKTVIGPDGHKEVTKEVVTSEDGSDCPEAMDLGTLSGIGTLDGFRHRHPDEAAFFDTASTGKTFPGFFSPMLGEFVSETESRGSESGIFTNTKESSSHHPGIAEFPSRGKSSSYSKQFTSSTSYNRGDSTFESKSYKMADEAGSEADHEGTHSTKRGHAKSRPVRDCDDVLQTHPSGTQSGIFNIKLPGSSKIFSVYCDQETSLGGWLLIQQRMDGSLNFNRTWQDYKRGFGSLNDEGEGEFWLGNDYLHLLTQRGSVLRVELEDWAGNEAYAEYHFRVGSEAEGYALQVSSYEGTAGDALIEGSVEEGAEYTSHNNMQFSTFDRDADQWEENCAEVYGGGWWYNNCQAANLNGIYYPGGSYDPRNNSPYEIENGVVWVSFRGADYSLRAVRMKIRPLVTQ
chain 2: GHRPLDKKREEAPSLRPAPPPISGGGYRARPAKAAATQKKVERKAPDAGGCLHADPDLGVLCPTGCQLQEALLQQERPIRNSVDELNNNVEAVSQTSSSSFQYMYLLKDLWQKRQKQVKDNENVVNEYSSELEKHQLYIDETVNSNIPTNLRVLRSILENLRSKIQKLESDVSAQMEYCRTPCTVSCNIPVVSGKECEEIIRKGGETSEMYLIQPDSSVKPYRVYCDMNTENGGWTVIQNRQDGSVDFGRKWDPYKQGFGNVATNTDGKNYCGLPGEYWLGNDKISQLTRMGPTELLIEMEDWKGDKVKAHYGGFTVQNEANKYQISVNKYRGTAGNALMDGASQLMGENRTMTIHNGMFFSTYDRDNDGWLTSDPRKQCSKEDGGGWWYNRCHAANPNGRYYWGGQYTWDMAKHGTDDGVVWMNWKGSWYSMRKMSMKIRPFFPQQ
chain 3: YVATRDNCCILDERFGSYCPTTCGIADFLSTYQTKVDKDLQSLEDILHQVENKTSEVKQLIKAIQLTYNPDESSKPNMIDAATLKSRKMLEEIMKYEASILTHDSSIRYLQEIYNSNNQKIVNLKEKVAQLEAQCQEPCKDTVQIHDITGKDCQDIANKGAKQSGLYFIKPLKANQQFLVYCEIDGSGNGWTVFQKRLDGSVDFKKNWIQYKEGFGHLSPTGTTEFWLGNEKIHLISTQSAIPYALRVELEDWNGRTSTADYAMFKVGPEADKYRLTYAYFAGGDAGDAFDGFDFGDDPSDKFFTSHNGMQFSTWDNDNDKFEGNCAEQDGSGWWMNKCHAGHLNGVYYQGGTYSKASTPNGYDNGIIWATWKTRWYSMKKTTMKIIPFNRLTIGEGQQHHLGGAKQVRPEHPAETEYDSLYPEDDL
On to B1, for which the “monocyte activation: fold increase of CD11b median fluorescence intensity above background, flow cytometry of whole blood, 10 donors” value with M5 protein is 4 fold; with M1 protein, 7 fold. Further, the “neutrophil activation: fold increase of CD11b median fluorescence intensity above background, flow cytometry of whole blood, 10 donors” value with M5 protein turned out to be 9 fold; with M1 protein, 14 fold.
